Measured values published in paper PMC10412621.

Biological target: full-length human leucine-rich repeat kinase 1 (LRRK1, residues 1-2015) (human) (UniProt Q38SD2)
Experiment: mass photometry; undiluted 'monomer' and 'dimer' gel filtration fractions added to detergent-free buffer (20 mM Tris, 150 mM NaCl, 5 mM MgCl2 pH 8.3); OneMP mass photometer; dimer fraction held monomers and dimers at approximately a 1:2 ratio, alongside higher-order species

full-length human leucine-rich repeat kinase 1 (LRRK1, residues 1-2015) (from UniProt Q38SD2 1-2015) (enzyme)
stoichiometry N: 2
